From paper PMC10963267 (2023)

Key:
Test in all cases: BLI
[1] = biological target: IL70095
[2] = biological target: IL70101
[3] = biological target: IL70099
[4] = biological target: IL70094
[5] = biological target: IL70093
[6] = biological target: IL70107
[7] = biological target: IL70108
[8] = biological target: IL70104
[9] = biological target: IL70097
[10] = biological target: IL70109
[11] = biological target: IL70103
[12] = biological target: IL70106
[13] = biological target: IL70096
[14] = biological target: IL70092
[15] = biological target: IL70110
[16] = biological target: IL70098

B1: human interleukin-7 (huIL-7), biotinylated (ligand)
chain: DCDIEGKDGKQYESVLMVSIDQLLDSMKEIGSNCLNNEFNFFKRHICDANKEGMFLFRAARKLRQFLKMNSTGDFDLHLLKVSEGTTILLNCTGQVKGRKPAALGEAQPTKSLEENKSLKEQKKLNDLCFLKRLLQEIKTCWNKILMGTKEH
modifications: biotin
B1 was tested, and the Kd [1] was 0.429 nM, the Kd [2] was 1.14 nM and the Kd [3] was 1.53 nM. The Kd [4] was 0.754 nM, the Kd [5] was 0.525 nM and the Kd [6] was 2.94 nM. The Kd [7] was 2.55 nM, the Kd [8] was 2.64 nM and the Kd [9] was 1.79 nM. For the same binder, the Kd [10] was 1.48 nM, the Kd [11] was 0.657 nM and the Kd [12] was 2.92 nM. It also gave a Kd [13] of 0.708 nM, a Kd [14] of 0.909 nM and a Kd [15] of 0.824 nM. It also gave a Kd [16] of 0.52 nM.
